{
  "source": "the nanobody polyreactivity screen of Harvey et al. (2022)",
  "data": [
    {"assay": "yeast display, Sf9 membrane polyspecificity reagent, FACS + sequencing; frameworks hold sequencing errors", "outline": "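After 36–48 hours of galactose induction, yeast (Saccharomyces cerevisiae BJ5465) displaying a synthetic nanobody library were stained at 4 °C for 1 hour with 10% biotinylated, detergent-solubilized Sf9 membrane reagent. Streptavidin microbeads enriched the stained cells before FACS sorting into low and high (top ~1%) gates on anti-HA and streptavidin fluorescence. Each clone's polyreactivity label reflects its gate of origin.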", "values": [
      {"sequence": "QDQHEESGGGLVQAGGSLRLICAASGLIFPRYAMGWYRPAPGKERELVAAITRGGSTYYADSVKGRFTISRDNAKNTVYLQMNSLKPEDTAVYYCNAELPVHWSWYDYWGQGTQVTVSS", "polyreactivity (PSR sort gate)": "low polyreactivity"},
      {"sequence": "QDQHGESGGGLVQAGGRLRLSGAASGSTFPGNAMGWYRQAPGKERELVAAITSGGRTYYADSVKGRFTISRDNAKNTVYLQMNSLKPEDTAVYYCAVSTPIQRHGETYAKFDYWGQGTQVTVSS", "polyreactivity (PSR sort gate)": "low polyreactivity"},
      {"sequence": "QDQHGESGGGLVQAGGSLRLSCAASGYTFLRNDMGWYRQPHGKVRELVAAISYSGGGTYYADSVKGRFTISRDNAKITVYLQMNSLKPEDTAVYYCNVAQRYYGNFFSSRYEYWGQGTQVTVSS", "polyreactivity (PSR sort gate)": "low polyreactivity"},
      {"sequence": "QDQHVESAGGLVQAGGSRRLSCAASESMFSTYPMGCYSQAPGTESELVATIRRGGSTYYADSVKGRFTISRDNAKNTVYLQMNSLKPEDSAVYYCAATVSSYPYYRYYSWGQGTQVTVSS", "polyreactivity (PSR sort gate)": "high polyreactivity"},
      {"sequence": "QDQHVESGGGLVQAGGSLRLSCAASGFIISYYDMGWYRQPPGHESELVATIDWSGGSTYYADSVKGRFTISRDNAKNTVYLQLNSLKPEDTAVYYCNADWIFGSAPSGRYKYDYWGQGTQVTVSS", "polyreactivity (PSR sort gate)": "low polyreactivity"},
      {"sequence": "QDQHVESGGGLVQAGGSLRLSCAASGGIFYTYTMGWYRQAPGKEREFVAAITRSGDRTYYADSVKGRFTISRDNAKNTGYLQMNSLKPEDTAVYYCNTVTRKNPSGLALDEYNYCGQGTQVTVSS", "polyreactivity (PSR sort gate)": "high polyreactivity"},
      {"sequence": "QDQHVESGGGLVQAGGSLRLSCAASGIIFDYNAMGWYRQAPGKERELVAAITSTDNTNYADSVKGRLTISRDNAKNTVYLQMNSLKPEDTAVYYCNSDYWLSVVYAMDYWGQGTQVTVSS", "polyreactivity (PSR sort gate)": "low polyreactivity"},
      {"sequence": "QDQHVESGGGLVQAGGSLRLSCAASGLTFGTYAKGWYRQAPGKERELVAAITTGARTYFADSVKGRFTISRDNAKNTVYLKMNSLKPEDTAVYYCAAYKFYSEYEYWGQGTQVTVSS", "polyreactivity (PSR sort gate)": "high polyreactivity"},
      {"sequence": "QDQHVESGGGLVQAGGSLRLSCAASGSTFGDNAMGWYRQAPGKERELVAAISRGGRTYYADSVKGRFTISRDNAKNTVYLQMNSLKPEDTAVYYCAATSAYRGYWVLRGLSYDYWGQGTQVTVSS", "polyreactivity (PSR sort gate)": "high polyreactivity"},
      {"sequence": "QDQHVESGGGLVQAGGSLRLSCAASGTIFSYYAMGWYRQAPGKERELVASISWKGTSTYYADSVKGRFTISRDNSKNTVYLQMNSLKPEDTAVYYCNVRFNYRGTYDYWGQGTQVTVSS", "polyreactivity (PSR sort gate)": "low polyreactivity"},
      {"sequence": "QDQHVESGGGLVQAGGSLRLSCDASGFIFNQNARGWYRQAPGKERELVAAISQRGGRTYYADSVKGRFTISRDNAKNTVYLQMNSLKPEDTAVYYCAAYGPFRFDVDTYDYWGQGTQVTVSS", "polyreactivity (PSR sort gate)": "low polyreactivity"},
      {"sequence": "QDQHVESVGGLVQAGGSLLLSCAASGFTLRGYALGWDRQAPGKERELVADISGGGSTDYADSVKGRFTISRDNAKNTVYLQMNSLKPLDTAVYYCAAYGYLWWEMDYWGQGTQVTLSS", "polyreactivity (PSR sort gate)": "high polyreactivity"},
      {"sequence": "QDQIVDSGGGLVQAGVSLRLSCAASGFTFGINTLGWYRQAPGKERELVAGISRTSSTYADSVKGRFTISRDNAKNTVYLQMNSLNAEDTAVYYCAAEYFQTRFGSWRKRYVSWGQGTQVTVSS", "polyreactivity (PSR sort gate)": "high polyreactivity"},
      {"sequence": "QDQIVESGGGLVQAGGSLRLSCAASGRTFGVNTMGWSRQAPGKVREMVASISTSGGSTYADSVKGRFTISRDNPKNTVYLQMNSLKPEDSAVYYCAKDTDAVYDEFDSWGQGTQVTVSS", "polyreactivity (PSR sort gate)": "low polyreactivity"},
      {"sequence": "QDQLEESGGGLVQAGGSLRLSCGASGSIYDTNDMGWYRQAPGKERELVSAISSGGNTNYADSVKGRFTISRDNAKNTVYLQMKSVKPEDTAVYYWAAVWLGVYSVWTYHHYDYWGQGTQVTVSS", "polyreactivity (PSR sort gate)": "low polyreactivity"},
      {"sequence": "QDQLEESGGGLVQEGGSLRLSCAATGFTLAFNAMGWYRQAPGKERELVASITSSSGSTYYADSVKGRFTISRDNAKITVFLQMNSLKPEDTAVYYCARDLAIPQVLSQPIFGYWGQGTQVTVSS", "polyreactivity (PSR sort gate)": "low polyreactivity"},
      {"sequence": "QDQLGESGGGLLQAGGSLRLSCAASGRTFRYYAMGSYRQEPGKERELVAAISISGGNTYYADSVKGRFTISRDHAKNTVYLQMNSLKPEDTAVYYCAASFSSRFYRARVDYWGQGTQVTVSS", "polyreactivity (PSR sort gate)": "high polyreactivity"}
    ]}
  ]
}
